In the supplement of paper PMC12042874:
± gives the uncertainty stated by the source.

Test: amyloid nucleation score (Sup35N fusion, yeast selection) (log enrichment); library NNK2; higher = more nucleation; inactive = no reads after selection
Outline: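 Nucleation score: DiMSum log enrichment of output over input reads, centred on the mode score of non-aggregating sequences. Only sequences with at least 100 input reads were kept. Reads came from Illumina sequencing of plasmid inserts before and after 7 days of growth at 30°C without adenine and uracil, in psi-negative yeast expressing Sup35N fused to peptides of 20 random codons after 24 hours of induction with 100 μM copper sulfate.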

| Substance | amyloid nucleation score |
| --- | --- |
| ILNYSWALRVIDFTHRKVFS | -0.376 ± 0.2 |
| ILRCICRNILSSSRVRCSYH | inactive |
| ILSHTGRVYKLRLYVIQIVR | -0.434 ± 0.61 |
| ILSLMLRSVWRSVLLVLQ | inactive |
| ILTIALVRFSLSRWRLPWPY | 1.36 ± 0.29 |
| ILVHVSFDNRFN | 6.06 ± 0.077 |
| ILWDTIREVHVHADMDMAPN | -0.782 ± 0.61 |
| IMMWFYPARTRQELASYEDQ | 2.12 ± 0.089 |
| IMNKVAWWIFMRMLSRGFVT | -1.1 ± 0.54 |
| IMPVMLERTGLSGLMCNGWG | -0.315 ± 0.65 |
| IMRCGMLVASKFQGEGRNRT | 0.747 ± 0.43 |
| INCFSLLEPLEYFSRLCQQR | -0.276 ± 0.55 |
| INFGWCFYMTRRWVCGMVFR | 0.106 ± 1 |
| INGPCVYFNFL | 6.425 ± 0.057 |
| INTSELNVFRS | inactive |
| INVSVFVVFRNRQRLKC | 7.363 ± 0.058 |
| IPALN | -0.963 ± 0.55 |
| IPASDRYKVFRLWHQFRLVG | -0.001 ± 0.56 |
| IPGVLLTYVIISRAPGGIPD | -0.545 ± 0.64 |
| IPNSGRGWSPAWPKMALTYS | 0.746 ± 0.24 |
| IPQEYPSDSMDVVMYISTLV | -0.016 ± 0.79 |
| IPTSYSRPITIWGYR | -1.3 ± 0.64 |
| IPVSMWQDRVTEVLDFGLRK | 0.389 ± 0.8 |
| IPYGMSWTWSH | -0.565 ± 0.3 |
| IPYYIDKKQSKMCNGFWS | 0.572 ± 0.57 |

| Substance | amyloid nucleation score |
| --- | --- |
| IQKVVIVYSHDVYSDQ | 6.737 ± 0.048 |
| IQLDTESSLVKRRAWYG | 0.34 ± 0.64 |
| IQRPADRIQHMTMWHTQDLV | 1.14 ± 0.37 |
| IQSFVKYKNVSRMYLTCPNL | 1.2 ± 0.2 |
| IQTHSSSWG | -0.288 ± 1 |
| IQVMSDMFKCDVTNVMGRRG | 2.99 ± 0.094 |
| IRFANVPSRNKFH | 0.486 ± 0.36 |
| IRFNAYLRDEDYSKIREVLG | -1.41 ± 0.54 |
| IRGYYYGMRYSDWGSC | -0.06 ± 0.31 |
| IRKALNASVLKLT | 1.1 ± 0.36 |
| IRLTRY | -0.338 ± 0.35 |
| IRSKSWVVDTQFRPIDSLLV | 0.646 ± 0.49 |
| IRVFSDGAFKTEFTTKATLL | 0.328 ± 0.65 |
| IRVGICAVDGPACKRLYSCM | -0.176 ± 0.35 |
| IRVRGFPSSHRSV | -0.901 ± 0.78 |
| ISDFQACIRGDRWDEKGYIS | inactive |
| ISDKSVV | inactive |
| ISECR | -0.432 ± 1.1 |
| ISFMQGDCRWHQVNSLQRIM | -0.94 ± 0.54 |
| ISFWSHSDTFVGNEGEHSVR | 1.29 ± 0.42 |
| ISFYQWRPWNFLRYRRGNAH | 0.237 ± 0.31 |
| ISGTHLCSRFYIRYALCGLK | 4.66 ± 0.079 |
| ISHISDL | 4.61 ± 0.072 |
| ISIVYNSAMSIHHDFLILLC | 5.32 ± 0.094 |
| ISNGYPVDRHSWVNILSLT | 1.23 ± 0.47 |

| Substance | amyloid nucleation score |
| --- | --- |
| ISPISLTISLLIGYTSGCLR | 3.15 ± 0.066 |
| ISPLIG | 0.33 ± 0.49 |
| ISSDLWVHSFNTILSENGVC | -0.674 ± 0.63 |
| ISSYEVELDALIVWGDTSSG | 0.006 ± 0.49 |
| ISTMSGPFVSRLWYSAYNTA | -0.345 ± 0.64 |
| ISYIIKILRKVVSWDNDMEV | -1.25 ± 0.45 |
| ITINSMSPRLPIRLRVVWKG | inactive |
| ITPMFPCLVVWWWESR | -0.235 ± 0.61 |
| ITQRFKTWRCGGGDEVRQAN | 0.239 ± 0.49 |
| ITYGKVLR | 0.379 ± 0.44 |
| ITYLWYISVLYREMPLCCAS | 0.237 ± 0.25 |
| IVACGCVSVSRRSLP | 3.09 ± 0.059 |
| IVCWTMVVDLIVDQMLTAYR | 1.03 ± 0.28 |
| IVGHRVLACVRPRRVVTRYG | 0.118 ± 0.63 |
| IVHQGLLIRPIDGVGRLTLS | 4.05 ± 0.1 |
| IVKFKKRVDRHLSSGDQLVR | 1.19 ± 0.61 |
| IVLSDSISQAFWASICHQGF | -1.55 ± 1.1 |
| IVMVPFLTIPVLYLVVMSSL | -0.788 ± 1.1 |
| IVQLWIWGVVPPFSDISHAL | 7.866 ± 0.05 |
| IVQSSTAKHEDQVFGKKV | 1.24 ± 0.61 |
| IVRRGAYSTGWMVMMLLQSL | 0.859 ± 0.8 |
| IVRVIMYLCGNLLVNRWGNA | 0.082 ± 1.1 |
| IVSVFQYRTVNIFVGFYYIR | inactive |
| IVWLMHSSSHRT | 5.79 ± 0.076 |
| IWDEQCRTLCGARCNDVSAW | 0.799 ± 0.3 |

| Substance | amyloid nucleation score |
| --- | --- |
| IWGCKELLDVRTAQGVDGM | 3.87 ± 0.078 |
| IWGGFYS | -1.29 ± 0.75 |
| IWTTYFMGLRT | -0.394 ± 0.78 |
| IYDCDTTMVSNNMRYILVLH | -0.858 ± 0.33 |
| IYKILLLLAGRRGFDCLVFS | -0.926 ± 0.74 |
| IYLCTDSLSYRSFVRGN | 1.18 ± 0.17 |
| IYLTSIYRQFSMLLLGSRTE | inactive |
| IYMRRCSVLGSHCH | 0.081 ± 1.1 |
| IYNMRHSMTMFHCYGFLRRV | -0.976 ± 0.63 |
| IYPSVRYPMYAITKRYSRVG | -0.769 ± 0.28 |
| IYREVYAL | inactive |
| IYVFGIGTYMVTQFLCSTTI | 6.909 ± 0.031 |
| IYWLSYQTMVPIQAVYIHRC | -0.087 ± 0.42 |
| IYYLRLWSM | inactive |
| KAGESWTEGDSAVWGFLRLE | 0.942 ± 0.81 |
| KAKLMKRSFWMWSCLLCFR | 0.912 ± 0.74 |
| KASTRQ | 1.51 ± 0.34 |
| KATWS | -1.2 ± 0.76 |
| KCHCRAMS | inactive |
| KCRLSIF | inactive |
| KCVVKELYWLWFHLSSVNLY | -1.23 ± 1.1 |
| KCYQSFNNADALM | -0.627 ± 0.33 |
| KDGEVAAMPGRGVHQVMGEK | 0.325 ± 0.49 |
| KDLGA | 3.08 ± 0.13 |
| KDPLNYNSYSVLLDIWWNLS | 1.57 ± 0.15 |

| Substance | amyloid nucleation score |
| --- | --- |
| KELLMAIASWSRLSGDIAVD | -0.86 ± 0.78 |
| KFGSWDHSACYSRWYSKSFV | -0.012 ± 1.1 |
| KFIFTSLAN | -0.425 ± 0.61 |
| KFIPLINIRTQL | inactive |
| KFSKIRFAFIIFGSKPYMRV | -0.875 ± 0.49 |
| KFWLCDEGYWWNVASGLSSV | 0.845 ± 0.32 |
| KGGAARSVWISMCFFKAFYR | -0.358 ± 1 |
| KGGSRLCNFRSATKLSGPLL | 0.597 ± 0.46 |
| KGRGEMSLLFYSILLVGFCL | inactive |
| KHMNAYCNVTYQIDFRCIIS | inactive |
| KHMYYYCLYANELQVAVEMN | -0.235 ± 0.45 |
| KIFSSF | -1.01 ± 1.1 |
| KIIISYGQCK | 2.71 ± 0.2 |
| KILNPERRSNGWVMMKFVVD | -0.599 ± 1 |
| KIVSWAMIIARVVYCDQDL | inactive |
| KIWHLSQYCAVFSLVFKGLN | 2.41 ± 0.15 |
| KKDSSWFRLNDKKVVSSHKR | -0.215 ± 0.2 |
| KKLALKVVVSNCFKK | 5.991 ± 0.048 |
| KKSRNPHGKFTWTFGFVKKL | -1.76 ± 1.1 |
| KLANV | inactive |
| KLGVKLASTLGISRLPHTTS | 0.827 ± 0.23 |
| KLIHWIILVWFSSGTLPCND | -0.133 ± 0.5 |
| KLMFRHV | 5.01 ± 0.081 |
| KLNCMRGLPGLCPRWFIIAC | 0.089 ± 1.1 |
| KLPFICINRGWWLVGRINSS | 3.07 ± 0.18 |

| Substance | amyloid nucleation score |
| --- | --- |
| KLQFVGFCTNDAKYKGRIPG | 2.35 ± 0.089 |
| KLYKCQRQCPALAKVTYGYK | 0.332 ± 0.27 |
| KMCLIRYMHNPKVGIRLGRS | 0.102 ± 0.33 |
| KMHCGFDFEWVTTYNTTIVR | -0.369 ± 0.47 |
| KMHLAQ | inactive |
| KMKFKKENFC | -0.858 ± 1 |
| KMMLSTRSQYPS | 0.489 ± 0.36 |
| KMQMLWTGVCRVLFVAPQPN | 0.319 ± 0.36 |
| KMTYP | 2.14 ± 0.13 |
| KNNRVAFTLYFSQTARDWMH | 5.156 ± 0.046 |
| KNNTADWWIRSNSERYRN | -0.039 ± 0.46 |
| KNSWAAVPRSEEYCREVIGH | 0.482 ± 0.56 |
| KPFFEKFVSTLGLWFEQLKS | -0.574 ± 0.42 |
| KPWVTLLVCCSVYRFFMYYA | 4.96 ± 0.081 |
| KQLFSLISYVG | -1.4 ± 1.1 |
| KQLMRGIWDRG | -0.217 ± 0.79 |
| KRCYCIKGVCNLNGISPKVK | -0.468 ± 0.36 |
| KRFYMT | 1.31 ± 0.081 |
| KRRSQIRMTNDNLASVNMKN | 1.43 ± 0.096 |
| KRSLLQKLCC | -0.421 ± 0.61 |
| KRSVAVFRRCV | 0.817 ± 0.44 |
| KRVGTYEVKI | -0.253 ± 0.55 |
| KRWQVLFDRSRKYCRVGKT | 0.161 ± 0.56 |
| KSDTMLRDYKKWVGHELYTR | 0.066 ± 0.54 |
| KSGLTQLLQILSSCLELGIW | 0.38 ± 0.51 |

| Substance | amyloid nucleation score |
| --- | --- |
| KSLYIGSAY | 1 ± 0.42 |
| KSQRKVIGTLLKVYWPWGCM | 0.654 ± 0.25 |
| KSTVIMSDTFLR | -0.271 ± 1 |
| KSVRIWPSVSAGTRRLKQS | inactive |
| KTDRLTKGTATFKRMTEI | inactive |
| KTFLVDSLCNRL | inactive |
| KTFRCRRCGNN | 0.721 ± 0.6 |
| KTLFINLHSCCANVGYAVRW | 4.87 ± 0.058 |
| KTNSIPYSMVS | -0.113 ± 1.1 |
| KTTHDCGSAHVGL | -0.504 ± 0.63 |
| KVAFKIALKSSTIWFIDS | 2.47 ± 0.13 |
| KVANRYIK | 0.136 ± 0.32 |
| KVFSPHRNWWVI | 0.553 ± 0.57 |
| KVLLMTRT | -0.113 ± 0.45 |
| KVSSLNCCVRCLDTMCAFQV | 6.15 ± 0.088 |
| KWFSIMRPVRLVRFHWTGSN | 3.63 ± 0.089 |
| KWPHRYINTLVPLLIRWTYR | -0.421 ± 0.37 |
| KWRAFYPSTGSLRVEILSF | -1.22 ± 1.1 |
| KWSFF | 4.34 ± 0.081 |
| KWYKVVNMALALISMWSQAW | -0.701 ± 0.63 |
| KYEIRAASARGGSNVCFCIG | 0.691 ± 0.19 |
| KYNQPIMNSSSRGADCGCVR | 4.16 ± 0.07 |
